Series [1] concerns the target T1, Cul3NΔ22 (23-388, I342R, and L346D) (UniProt Q13618 23-388, I342R | L346D). Kind of series: pull-down.
Series [2] has as its target T1, Cul3NΔ22 (23-388, I342R, and L346D). Kind of series: cryo-EM structure.
The series “cryo-EM structure” deals with the molecule itself. Kind of series: cryo-EM structure.

T1 sequence (Q13618 23-388 I342R/L346D): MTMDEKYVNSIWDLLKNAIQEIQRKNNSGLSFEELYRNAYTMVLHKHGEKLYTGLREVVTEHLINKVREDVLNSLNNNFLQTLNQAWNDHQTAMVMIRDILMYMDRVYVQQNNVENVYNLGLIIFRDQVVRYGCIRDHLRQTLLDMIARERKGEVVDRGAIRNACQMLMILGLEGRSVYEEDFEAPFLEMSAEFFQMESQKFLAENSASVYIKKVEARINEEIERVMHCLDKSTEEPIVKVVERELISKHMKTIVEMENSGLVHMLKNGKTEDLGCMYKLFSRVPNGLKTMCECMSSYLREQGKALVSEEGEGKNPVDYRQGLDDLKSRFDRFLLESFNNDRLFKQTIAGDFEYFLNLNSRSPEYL

B1: FLAG-tagged KCTD7 WT (E. coli, for pull-down) (natural protein)
chain: MVVVTGREPDSRHSDGAMSSSEAEDDFLEPATPTATQAGHGLPLLPQEFPEVVPLNIGGAHFTTRLSTLRRYEDTMLAAMFSGRHYIPTDSEGRYFIDRDGTHFGDVLNFLRSGDLPPREHVRAVHKEAQYYAIGPLLEQLENMQPLKGEKVRQAFLGLMPYYKDHLERIVEIARLRAVQRKARFAKLKVCVFKEEMPITPYECPLLNSLRFERSESDGQLFEHHCEVDVSFGPWEAVADVYDLLHCLVTDLSAQGLTVDHQCIGVCDKHLVNHYYCKRPIYEFKITWW
On to B1, for which the binding result in series [1] is “binds”.

B2: KCTD7 (Sf9, for the cryo-EM complex) (natural protein)
chain: MVVVTGREPDSRHSDGAMSSSEAEDDFLEPATPTATQAGHGLPLLPQEFPEVVPLNIGGAHFTTRLSTLRRYEDTMLAAMFSGRHYIPTDSEGRYFIDRDGTHFGDVLNFLRSGDLPPREHVRAVHKEAQYYAIGPLLEQLENMQPLKGEKVRQAFLGLMPYYKDHLERIVEIARLRAVQRKARFAKLKVCVFKEEMPITPYECPLLNSLRFERSESDGQLFEHHCEVDVSFGPWEAVADVYDLLHCLVTDLSAQGLTVDHQCIGVCDKHLVNHYYCKRPIYEFKITWW
As for B2, the binding result in series [2] is recorded as “binds”. Further, the “stoichiometry N” value in the series “cryo-EM structure” is 5.

B3: FLAG-tagged KCTD7 R65A (natural protein)
chain: MVVVTGREPDSRHSDGAMSSSEAEDDFLEPATPTATQAGHGLPLLPQEFPEVVPLNIGGAHFTTALSTLRRYEDTMLAAMFSGRHYIPTDSEGRYFIDRDGTHFGDVLNFLRSGDLPPREHVRAVHKEAQYYAIGPLLEQLENMQPLKGEKVRQAFLGLMPYYKDHLERIVEIARLRAVQRKARFAKLKVCVFKEEMPITPYECPLLNSLRFERSESDGQLFEHHCEVDVSFGPWEAVADVYDLLHCLVTDLSAQGLTVDHQCIGVCDKHLVNHYYCKRPIYEFKITWW
Turning to B3, the binding result in series [1] is given as “binds”.

B4: FLAG-tagged KCTD7 S67A (natural protein)
chain: MVVVTGREPDSRHSDGAMSSSEAEDDFLEPATPTATQAGHGLPLLPQEFPEVVPLNIGGAHFTTRLATLRRYEDTMLAAMFSGRHYIPTDSEGRYFIDRDGTHFGDVLNFLRSGDLPPREHVRAVHKEAQYYAIGPLLEQLENMQPLKGEKVRQAFLGLMPYYKDHLERIVEIARLRAVQRKARFAKLKVCVFKEEMPITPYECPLLNSLRFERSESDGQLFEHHCEVDVSFGPWEAVADVYDLLHCLVTDLSAQGLTVDHQCIGVCDKHLVNHYYCKRPIYEFKITWW
In the case of B4, the binding result in series [1] is listed as “binds”.

B5: FLAG-tagged KCTD5 full-length (FL) (natural protein)
chain: MAENHCELLPPAPSGLGAGLGGGLCRRCSAGMGALAQRPGGVSKWVRLNVGGTYFLTTRQTLCRDPKSFLYRLCQADPDLDSDKDETGAYLIDRDPTYFGPVLNYLRHGKLVINKDLAEEGVLEEAEFYNITSLIKLVKDKIRERDSRISQMPVKHVYRVLQCQEEELTQMVSTMSDGWKFEQLVSIGSSYNYGNEDQAEFLCVVSKELHNTPYGTTSEPSEKAKILQERGSRM
Regarding B5, the binding result in series [1] is on record as “binds”.

B6: FLAG-tagged KCTD5 R159A (natural protein)
chain: MAENHCELLPPAPSGLGAGLGGGLCRRCSAGMGALAQRPGGVSKWVRLNVGGTYFLTTRQTLCRDPKSFLYRLCQADPDLDSDKDETGAYLIDRDPTYFGPVLNYLRHGKLVINKDLAEEGVLEEAEFYNITSLIKLVKDKIRERDSRISQMPVKHVYAVLQCQEEELTQMVSTMSDGWKFEQLVSIGSSYNYGNEDQAEFLCVVSKELHNTPYGTTSEPSEKAKILQERGSRM
On to B6, for which the binding result in series [1] was “binds”.

B7: FLAG-tagged KCTD5 E167A (natural protein)
chain: MAENHCELLPPAPSGLGAGLGGGLCRRCSAGMGALAQRPGGVSKWVRLNVGGTYFLTTRQTLCRDPKSFLYRLCQADPDLDSDKDETGAYLIDRDPTYFGPVLNYLRHGKLVINKDLAEEGVLEEAEFYNITSLIKLVKDKIRERDSRISQMPVKHVYRVLQCQEEALTQMVSTMSDGWKFEQLVSIGSSYNYGNEDQAEFLCVVSKELHNTPYGTTSEPSEKAKILQERGSRM
For B7, the binding result in series [1] is recorded as “binds”.

B8: FLAG-tagged KCTD5 D93A (natural protein)
chain: MAENHCELLPPAPSGLGAGLGGGLCRRCSAGMGALAQRPGGVSKWVRLNVGGTYFLTTRQTLCRDPKSFLYRLCQADPDLDSDKDETGAYLIARDPTYFGPVLNYLRHGKLVINKDLAEEGVLEEAEFYNITSLIKLVKDKIRERDSRISQMPVKHVYRVLQCQEEELTQMVSTMSDGWKFEQLVSIGSSYNYGNEDQAEFLCVVSKELHNTPYGTTSEPSEKAKILQERGSRM
Turning to B8, in series [1], the binding result is listed as “binds”.

B9: FLAG-tagged KCTD5 W179A (natural protein)
chain: MAENHCELLPPAPSGLGAGLGGGLCRRCSAGMGALAQRPGGVSKWVRLNVGGTYFLTTRQTLCRDPKSFLYRLCQADPDLDSDKDETGAYLIDRDPTYFGPVLNYLRHGKLVINKDLAEEGVLEEAEFYNITSLIKLVKDKIRERDSRISQMPVKHVYRVLQCQEEELTQMVSTMSDGAKFEQLVSIGSSYNYGNEDQAEFLCVVSKELHNTPYGTTSEPSEKAKILQERGSRM
With B9, in series [1], the binding result is “binds”.

B10: FLAG-tagged KCTD5 R72A (natural protein)
chain: MAENHCELLPPAPSGLGAGLGGGLCRRCSAGMGALAQRPGGVSKWVRLNVGGTYFLTTRQTLCRDPKSFLYALCQADPDLDSDKDETGAYLIDRDPTYFGPVLNYLRHGKLVINKDLAEEGVLEEAEFYNITSLIKLVKDKIRERDSRISQMPVKHVYRVLQCQEEELTQMVSTMSDGWKFEQLVSIGSSYNYGNEDQAEFLCVVSKELHNTPYGTTSEPSEKAKILQERGSRM
Turning to B10, in series [1], the binding result was “binds”.

Values taken from article PMC10348674 (Science Advances, 2023).
